Data on 5 variants can be found in IntAct's records for PubMed 20062059.

B1: GTP-binding protein RHO1 (Saccharomyces cerevisiae), P06780 (parent)
chain: MSQQVGNSIRRKLVIVGDGACGKTCLLIVFSKGQFPEVYVPTVFENYVADVEVDGRRVELALWDTAGQEDYDRLRPLSYPDSNVVLICFSIDLPDSLENVQEKWIAEVLHFCQGVPIILVGCKVDLRNDPQTIEQLRQEGQQPVTSQEGQSVADQIGATGYYECSAKTGYGVREVFEAATRASLMGKSKTNGKAKKNTTEKKKKKCVLL

Variants of B1 are the subject of this assay. Particulars: with sec3_yeast SEC3, P33332.
Sequence of sec3_yeast SEC3, P33332 (P33332 whole entry): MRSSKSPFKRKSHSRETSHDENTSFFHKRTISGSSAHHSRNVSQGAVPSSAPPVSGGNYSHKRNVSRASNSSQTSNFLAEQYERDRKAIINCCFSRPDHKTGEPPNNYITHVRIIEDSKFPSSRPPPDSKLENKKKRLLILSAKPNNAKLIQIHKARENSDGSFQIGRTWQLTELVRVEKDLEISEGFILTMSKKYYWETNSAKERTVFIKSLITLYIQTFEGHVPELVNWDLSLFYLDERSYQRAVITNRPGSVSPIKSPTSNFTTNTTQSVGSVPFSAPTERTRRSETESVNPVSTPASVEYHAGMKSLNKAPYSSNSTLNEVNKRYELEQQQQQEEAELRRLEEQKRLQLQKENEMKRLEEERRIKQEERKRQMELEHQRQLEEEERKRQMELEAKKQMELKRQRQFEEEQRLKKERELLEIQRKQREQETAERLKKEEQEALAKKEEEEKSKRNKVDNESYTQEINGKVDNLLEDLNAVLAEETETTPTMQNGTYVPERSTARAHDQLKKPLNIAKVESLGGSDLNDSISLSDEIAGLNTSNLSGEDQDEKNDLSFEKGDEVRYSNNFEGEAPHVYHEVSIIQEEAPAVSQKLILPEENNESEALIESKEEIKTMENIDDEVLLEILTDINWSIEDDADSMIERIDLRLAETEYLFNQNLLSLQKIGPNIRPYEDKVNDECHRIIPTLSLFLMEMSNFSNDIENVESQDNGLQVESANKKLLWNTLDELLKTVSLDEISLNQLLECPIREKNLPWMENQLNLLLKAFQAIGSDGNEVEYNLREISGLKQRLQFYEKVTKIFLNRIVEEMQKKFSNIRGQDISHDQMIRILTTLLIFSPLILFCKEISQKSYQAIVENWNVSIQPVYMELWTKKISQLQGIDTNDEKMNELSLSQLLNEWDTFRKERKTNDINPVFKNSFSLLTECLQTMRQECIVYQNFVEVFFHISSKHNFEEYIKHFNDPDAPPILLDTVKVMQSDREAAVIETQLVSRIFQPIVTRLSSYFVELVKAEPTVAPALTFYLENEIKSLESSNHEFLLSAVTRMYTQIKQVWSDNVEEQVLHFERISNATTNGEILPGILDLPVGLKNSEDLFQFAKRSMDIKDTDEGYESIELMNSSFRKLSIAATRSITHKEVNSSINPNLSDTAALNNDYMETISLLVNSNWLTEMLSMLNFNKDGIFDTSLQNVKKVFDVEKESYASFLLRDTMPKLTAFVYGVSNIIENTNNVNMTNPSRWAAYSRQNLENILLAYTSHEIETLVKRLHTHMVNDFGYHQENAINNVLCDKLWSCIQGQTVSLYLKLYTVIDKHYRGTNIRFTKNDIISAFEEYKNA
For the variant MSQQVGNSIRRKLVIVGDGACGKTCLLIVFSKGQFPEVYVPTVFENYVADVEVDGRRVELALWDTAGQEDYDALRPLSYPDSNVVLICFSIDLPDSLENVQEKWIAEVLHFCQGVPIILVGCKVDLRNDPQTIEQLRQEGQQPVTSQEGQSVADQIGATGYYECSAKTGYGVREVFEAATRASLMGKSKTNGKAKKNTTEKKKKKCVLL [R73A], the “effect of a mutation on the interaction” value was “disrupting interaction”. To MSQQVGNSIRRKLVIVGDGACGKTCLLIVFSKGQFPEVYVPTVAENYVADVEVDGRRVELALWDTAGQEDYDRLRPLSYPDSNVVLICFSIDLPDSLENVQEKWIAEVLHFCQGVPIILVGCKVDLRNDPQTIEQLRQEGQQPVTSQEGQSVADQIGATGYYECSAKTGYGVREVFEAATRASLMGKSKTNGKAKKNTTEKKKKKCVLL [F44A] belongs “disrupting interaction”; to MSQQVGNSIRRKLVIVGDGACGKTCLLIVFSKGQFPEVYVPTAFENYVADVEVDGRRVELALWDTAGQEDYDRLRPLSYPDSNVVLICFSIDLPDSLENVQEKWIAEVLHFCQGVPIILVGCKVDLRNDPQTIEQLRQEGQQPVTSQEGQSVADQIGATGYYECSAKTGYGVREVFEAATRASLMGKSKTNGKAKKNTTEKKKKKCVLL [V43A], “disrupting interaction”; to MSQQVGNSIRRKLVIVGDGACGKTCLLIVFSKGQFPEVYVPTVFENYVADVEVDGRRVELALWDTAGQEDADRLRPLSYPDSNVVLICFSIDLPDSLENVQEKWIAEVLHFCQGVPIILVGCKVDLRNDPQTIEQLRQEGQQPVTSQEGQSVADQIGATGYYECSAKTGYGVREVFEAATRASLMGKSKTNGKAKKNTTEKKKKKCVLL [Y71A], “disrupting interaction”.

Turning to MSQQVGNSIRRKLVIVGDGACGKTCLLIVFSKGQFPEVYVPTVFENYVADVEVDGRRVELALWDTAGAEDYDRLRPLSYPDSNVVLICFSIDLPDSLENVQEKWIAEVLHFCQGVPIILVGCKVDLRNDPQTIEQLRQEGQQPVTSQEGQSVADQIGATGYYECSAKTGYGVREVFEAATRASLMGKSKTNGKAKKNTTEKKKKKCVLL [Q68A], the “effect of a mutation on the interaction” value is listed as “disrupting interaction”.
